Laboratory results from the supplement of paper PMC10567573.

B1: MTMR15 (parent)
chain: FSPDFTLRNTLKSTSEDSLVKQEC

Variants of: B1
Experiment: protein stability index of a GFP-peptide fusion (GPS, HEK-293T) (PSI 1-6); higher = more stable
Conditions: c terminus: a fixed tail appended
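Note: lentivirally expressed fusions sorted by FACS into six bins by GFP to DsRed ratio, PSI derived from sequencing read proportions per bin multiplied by bin number.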

Variant | protein stability index
FSPDFTLRNTLKSTSEDSPVKQEC [L19P] | 1.96
FSPDFTLRNTLKSTSEDSSVKQEC [L19S] | 1.97
FSPDFTLRNTLKSTSEDSKVKQEC [L19K] | 1.85
FSPDFTLRNTLKSTSEDSHVKQEC [L19H] | 2.32
FSPDFTLRNTLKSTSEDSQVKQEC [L19Q] | 3.03
FSPDFTLRNTLKSTSEDSTVKQEC [L19T] | 2.56
FSPDFTLRNTLKSTSEDSGVKQEC [L19G] | 2
FSPDFTLRNTLKSTSEDSYVKQEC [L19Y] | 2.24
FSPDFTLRNTLKSTSEDSWVKQEC [L19W] | 1.69
FSPDFTLRNTLKSTSEDSMVKQEC [L19M] | 2.46
FSPDFTLRNTLKSTSEDSVVKQEC [L19V] | 1.66
FSPDFTLRNTLKSTSEDSRVKQEC [L19R] | 2.15
FSPDFTLRNTLKSTSEDSIVKQEC [L19I] | 2.5
FSPDFTLRNTLKSTSEDSNVKQEC [L19N] | 2.2
FSPDFTLRNTLKSTSEDSLVKLEC [Q22L] | 1.88
FSPDFTLRNTLKSTSEDSLVKDEC [Q22D] | 1.92
FSPDFTLRNTLKSTSEDSLVKMEC [Q22M] | 1.65
FSPDFTLRNTLKSTSEDSLVKIEC [Q22I] | 2.06
FSPDFTLRNTLKSTSEDSLVKYEC [Q22Y] | 2.39
FSPDFTLRNTLKSTSEDSLVKCEC [Q22C] | 2.06
FSPDFTLRNTLKSTSEDSLVKKEC [Q22K] | 1.62
FSPDFTLRNTLKSTSEDSLVKTEC [Q22T] | 2.42
FSPDFTLRNTLKSTSEDSLVKHEC [Q22H] | 1.91
FSPDFTLRNTLKSTSEDSLVKGEC [Q22G] | 2.31

Variant | protein stability index
FSPDFTLRNTLKSTSEDSLVKEEC [Q22E] | 2.15
FSPDFTLRNTLKSTSEDSLVKVEC [Q22V] | 2
FSPDFTLRNTLKSTSEDSLVKNEC [Q22N] | 2.02
FSPDFTLRNTLKSTSEDSLVKAEC [Q22A] | 1.56
FSPDFTLRNTLKSTSEDSLVKREC [Q22R] | 1.72
FSPDFTLRNTLKSTSEDSLVKSEC [Q22S] | 1.86
FSPDFTLRNTLKSTSEDSLVKWEC [Q22W] | 2.08
FSPDFTLRNTLKSTSEDSLVKPEC [Q22P] | 1.67
FSPDFTLRNTLKSTSEDSLVKFEC [Q22F] | 2.65
FSPDFTLRNTLKSTSEDSLVYQEC [K21Y] | 2.62
FSPDFTLRNTLKSTSEDSLVGQEC [K21G] | 2.15
FSPDFTLRNTLKSTSEDSLVHQEC [K21H] | 2.83
FSPDFTLRNTLKSTSEDSLVNQEC [K21N] | 2.94
FSPDFTLRNTLKSTSEDSLVSQEC [K21S] | 1.9
FSPDFTLRNTLKSTSEDSLVPQEC [K21P] | 1.86
FSPDFTLRNTLKSTSEDSLVMQEC [K21M] | 2.86
FSPDFTLRNTLKSTSEDSLVIQEC [K21I] | 2.21
FSPDFTLRNTLKSTSEDSLVVQEC [K21V] | 2
FSPDFTLRNTLKSTSEDSLVWQEC [K21W] | 2.4
FSPDFTLRNTLKSTSEDSLVFQEC [K21F] | 2.06
FSPDFTLRNTLKSTSEDSLVDQEC [K21D] | 2.23
FSPDFTLRNTLKSTSEDSLVEQEC [K21E] | 2.52
FSPDFTLRNTLKSTSEDSLVRQEC [K21R] | 3.02
FSPDFTLRNTLKSTSEDSLVAQEC [K21A] | 2.81

Variant | protein stability index
FSPDFTLRNTLKSTSEDSLVLQEC [K21L] | 2.04
FSPDFTLRNTLKSTSEDSLVTQEC [K21T] | 2.1
FSPDFTLRNTLKSTSEDSLVQQEC [K21Q] | 2.33
FSPDFTLRNTLKSTSEDSLVCQEC [K21C] | 2.69
FSPDFTLRNTLKSTSEDSLVKQGC [E23G] | 2.26
FSPDFTLRNTLKSTSEDSLVKQSC [E23S] | 2.27
FSPDFTLRNTLKSTSEDSLVKQNC [E23N] | 1.58
FSPDFTLRNTLKSTSEDSLVKQAC [E23A] | 2.87
FSPDFTLRNTLKSTSEDSLVKQYC [E23Y] | 1.84
FSPDFTLRNTLKSTSEDSLVKQPC [E23P] | 2.04
FSPDFTLRNTLKSTSEDSLVKQLC [E23L] | 1.77
FSPDFTLRNTLKSTSEDSLVKQHC [E23H] | 1.95
FSPDFTLRNTLKSTSEDSLVKQDC [E23D] | 1.52
FSPDFTLRNTLKSTSEDSLVKQVC [E23V] | 1.94
FSPDFTLRNTLKSTSEDSLVKQMC [E23M] | 1.88
FSPDFTLRNTLKSTSEDSLVKQQC [E23Q] | 2.3
FSPDFTLRNTLKSTSEDSLVKQFC [E23F] | 2.51
FSPDFTLRNTLKSTSEDSLVKQTC [E23T] | 1.75
FSPDFTLRNTLKSTSEDSLVKQIC [E23I] | 1.72
FSPDFTLRNTLKSTSEDSLVKQRC [E23R] | 2.42
FSPDFTLRNTLKSTSEDSLVKQWC [E23W] | 2.59
FSPDFTLRNTLKSTSEDSLVKQKC [E23K] | 1.61
FSPDFTLRNTLKSTSEDSLVKQCC [E23C] | 2.49
FSPDFTLRNTLKSTSEDSLMKQEC [V20M] | 2.29

Variant | protein stability index
FSPDFTLRNTLKSTSEDSLDKQEC [V20D] | 2.08
FSPDFTLRNTLKSTSEDSLGKQEC [V20G] | 1.78
FSPDFTLRNTLKSTSEDSLQKQEC [V20Q] | 2.06
FSPDFTLRNTLKSTSEDSLFKQEC [V20F] | 3.85
FSPDFTLRNTLKSTSEDSLRKQEC [V20R] | 2.21
FSPDFTLRNTLKSTSEDSLWKQEC [V20W] | 2.12
FSPDFTLRNTLKSTSEDSLAKQEC [V20A] | 2.09
FSPDFTLRNTLKSTSEDSLHKQEC [V20H] | 2.19
FSPDFTLRNTLKSTSEDSLLKQEC [V20L] | 2.08
FSPDFTLRNTLKSTSEDSLTKQEC [V20T] | 2.01
FSPDFTLRNTLKSTSEDSLEKQEC [V20E] | 2.12
FSPDFTLRNTLKSTSEDSLCKQEC [V20C] | 1.74
FSPDFTLRNTLKSTSEDSLNKQEC [V20N] | 2.2
FSPDFTLRNTLKSTSEDSLKKQEC [V20K] | 2.46
FSPDFTLRNTLKSTSEDSLPKQEC [V20P] | 2.44
FSPDFTLRNTLKSTSEDSLIKQEC [V20I] | 2.19
FSPDFTLRNTLKSTSEDSLSKQEC [V20S] | 2.04
FSPDFTLRNTLKSTSEDSLYKQEC [V20Y] | 2
FSPDFTLRNTLKSTSEDSLVKQEF [C24F] | 2.63
FSPDFTLRNTLKSTSEDSLVKQED [C24D] | 2.59
FSPDFTLRNTLKSTSEDSLVKQEA [C24A] | 2.03
FSPDFTLRNTLKSTSEDSLVKQEE [C24E] | 1.69
